Results taken from publication PMC6017926, “CpG Methylation Changes G-Quadruplex Structures Derived from Gene Promoters and Interaction with VEGF and SP1”.

Columns and labels:
GST-SP1 [1] = target: GST-SP1 (UniProt P08047); experiment: SPR; settings: SPR VEGF165: DNA folded in 10 mM Tris-HCl, 100 mM KCl, pH 7.4, 25 °C, ELONA: DNA folded in TK (100 mM KCl) or 100 mM LiCl buffer, binding in TBS (10 mM …)
GST-SP1 [2] = target: GST-SP1 (UniProt P08047); experiment: ELONA; settings: 5-methylcytosine at CpG (underlining lost in text; CpG C at 5, 10, 16); SPR VEGF165: DNA folded in 10 mM Tris-HCl, 100 mM KCl, pH 7.4, 25 °C; ELONA: DNA folded in TK (100 mM KCl) or 100 mM LiCl buffer, binding in TBS (10 mM …)
VEGF165 = VEGF165 (UniProt P15692-4 27-191); experiment: SPR; 100 mM K+; SPR VEGF165: DNA folded in 10 mM Tris-HCl, 100 mM KCl, pH 7.4, 25 °C; ELONA: DNA folded in TK (100 mM KCl) or 100 mM LiCl buffer, binding in TBS (10 mM Tris-HCl, 150 mM NaCl, 5 mM KCl), 90 µM ZnCl2, pH 7.3, RT; SPR GST-SP1: captured by anti-GST on CM5, single-cycle kinetics 10-160 nM DNA, running buffer not stated; settings: chain copies: 2, label: 5' biotin for ELONA
VEGF165, sequence (P15692 other isoform, or with tags, fused parts or gaps): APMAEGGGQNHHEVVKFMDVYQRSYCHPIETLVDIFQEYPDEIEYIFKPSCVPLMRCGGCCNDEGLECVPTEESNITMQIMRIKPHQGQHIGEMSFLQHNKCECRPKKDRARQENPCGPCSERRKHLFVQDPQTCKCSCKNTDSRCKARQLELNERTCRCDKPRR

GST-SP1, sequence (P08047 whole entry): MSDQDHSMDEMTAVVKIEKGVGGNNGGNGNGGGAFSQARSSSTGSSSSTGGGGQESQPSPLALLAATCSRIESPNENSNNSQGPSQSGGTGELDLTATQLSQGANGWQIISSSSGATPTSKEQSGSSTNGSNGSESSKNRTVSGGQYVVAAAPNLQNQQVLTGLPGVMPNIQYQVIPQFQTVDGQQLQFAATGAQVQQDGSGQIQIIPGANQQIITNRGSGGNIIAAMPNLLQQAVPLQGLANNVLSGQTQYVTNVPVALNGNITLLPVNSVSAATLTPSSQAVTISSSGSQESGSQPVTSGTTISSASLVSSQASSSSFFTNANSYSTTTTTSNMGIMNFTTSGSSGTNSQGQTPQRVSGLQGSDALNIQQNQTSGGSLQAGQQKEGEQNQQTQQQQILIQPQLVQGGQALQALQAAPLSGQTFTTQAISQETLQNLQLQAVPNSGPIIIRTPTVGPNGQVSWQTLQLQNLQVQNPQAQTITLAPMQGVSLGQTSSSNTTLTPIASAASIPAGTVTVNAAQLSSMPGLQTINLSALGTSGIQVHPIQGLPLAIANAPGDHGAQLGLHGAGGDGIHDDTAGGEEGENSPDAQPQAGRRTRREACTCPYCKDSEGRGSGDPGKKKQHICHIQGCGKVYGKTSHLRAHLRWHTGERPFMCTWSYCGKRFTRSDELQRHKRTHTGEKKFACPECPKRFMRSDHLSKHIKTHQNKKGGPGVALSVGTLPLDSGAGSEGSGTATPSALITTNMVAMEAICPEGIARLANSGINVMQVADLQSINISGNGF

Molecule: GGGGCGGGCCGGGGGCGGGG [VEGF G4 unmethylated]
- Kd (GST-SP1 [1]): 14 nM

Molecule: CGGGCGCGGGAGGAAGGGGGCGGGAGC [BCL-2 G4 unmethylated]
- Kd (GST-SP1 [1]): 12 nM

Molecule: CGGGCGCGGGAGGAAGGGGGCGGGAGC [BCL-2 G4 methylated]
- Kd (GST-SP1 [1]; 5-methylcytosine at CpG (underlining lost in text; CpG C at 1, 5, 7, 21)): 28 nM

Molecule: CGGGGCGGGGCGGGGGCGGGGGCG [HRAS2 G4 unmethylated]
- Kd (GST-SP1 [1]): 10 nM

Molecule: TCGGGTTGCGGGCGCAGGGCACGGGCG [HRAS1 G4 unmethylated]
- Kd (GST-SP1 [1]): 10 nM

Molecule: GGCGAGGAGGGGCGTGGCCGGC [c-KIT G4 methylated]
- Kd (GST-SP1 [1]; 5-methylcytosine at CpG (underlining lost in text; CpG C at 3, 13, 19)): 11 nM

Molecule: GGCGAGGAGGGGCGTGGCCGGC [c-KIT G4 unmethylated]
- Kd (GST-SP1 [1]): 16 nM

Molecule: TCGGGTTGCGGGCGCAGGGCACGGGCG [HRAS1 G4 methylated]
- Kd (GST-SP1 [1]; 5-methylcytosine at CpG (underlining lost in text; CpG C at 2, 9, 13, 22, 26)): 36 nM

Molecule: GGGGCGGGCCGGGGGCGGGG [VEGF G4 methylated]
- Kd (GST-SP1 [1]; 5-methylcytosine at CpG (underlining lost in text; CpG C at 5, 10, 16)): 11 nM
- binding signal (fold signal vs unmethylated) (GST-SP1 [2]): 1.5

Molecule: CGGGGCGGGGCGGGGGCGGGGGCG [HRAS2 G4 methylated]
- Kd (GST-SP1 [1]; 5-methylcytosine at CpG (underlining lost in text; CpG C at 1, 6, 11, 17, 23)): 27 nM

Molecule: GGGGCGGGCCGGGGGCGGGG (structured_DNA) [VEGF G4 unmethylated]
- Kd (VEGF165; G4, parallel in K+): 13 ± 0.43 nM

Molecule: GGGGCGGGCCGGGGGCGGGG (structured_DNA, 5-methylcytosine at CpG (underlining lost in text; CpG C at 5, 10, 16)) [VEGF G4 methylated]
- Kd (VEGF165; G4, altered topology): 25 ± 5.7 nM
